Literature values as cited in publication PMC2848394.

Biological target: BMP-2 (Homo sapiens) (UniProt P12643)
Assay: Biacore SPR

Sequence of Chordin (Q9H2X0 27-955): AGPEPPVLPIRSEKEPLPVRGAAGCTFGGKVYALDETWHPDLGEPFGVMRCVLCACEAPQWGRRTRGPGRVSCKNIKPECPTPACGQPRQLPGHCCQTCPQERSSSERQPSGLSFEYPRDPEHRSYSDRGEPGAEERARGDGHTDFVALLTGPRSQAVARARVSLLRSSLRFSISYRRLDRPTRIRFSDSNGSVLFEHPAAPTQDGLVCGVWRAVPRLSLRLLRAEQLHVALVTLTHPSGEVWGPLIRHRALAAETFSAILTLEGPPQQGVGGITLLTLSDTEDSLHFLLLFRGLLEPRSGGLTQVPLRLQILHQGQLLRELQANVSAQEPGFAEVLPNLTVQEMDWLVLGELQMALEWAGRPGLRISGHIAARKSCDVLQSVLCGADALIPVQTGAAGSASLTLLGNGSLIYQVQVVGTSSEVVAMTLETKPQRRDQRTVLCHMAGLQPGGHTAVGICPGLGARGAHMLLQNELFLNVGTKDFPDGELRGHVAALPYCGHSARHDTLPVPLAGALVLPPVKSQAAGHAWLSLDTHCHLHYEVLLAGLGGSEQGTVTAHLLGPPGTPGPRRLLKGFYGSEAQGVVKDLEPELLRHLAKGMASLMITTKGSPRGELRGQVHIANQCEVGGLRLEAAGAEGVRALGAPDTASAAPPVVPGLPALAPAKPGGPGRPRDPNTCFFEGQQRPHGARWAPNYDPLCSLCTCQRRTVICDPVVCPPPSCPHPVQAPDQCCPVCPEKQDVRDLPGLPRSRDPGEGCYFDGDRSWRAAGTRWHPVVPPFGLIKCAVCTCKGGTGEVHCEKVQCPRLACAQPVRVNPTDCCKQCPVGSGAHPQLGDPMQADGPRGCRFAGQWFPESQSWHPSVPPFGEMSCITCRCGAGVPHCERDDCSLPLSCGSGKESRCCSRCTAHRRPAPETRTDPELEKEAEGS
Sequence of BMP-2 (Homo sapiens) (P12643 283-396): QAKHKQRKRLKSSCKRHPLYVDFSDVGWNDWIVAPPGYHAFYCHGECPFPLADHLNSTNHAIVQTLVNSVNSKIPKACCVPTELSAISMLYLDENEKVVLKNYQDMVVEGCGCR

For Chordin (from UniProt Q9H2X0), the Kd is listed as 12 nM.
